Test: soluble on expression in E. coli; label from the status in PepcDB or PDB records

Sequence | soluble on expression in E. coli
IIPISNFFQMVDALAEVSSTRIRLQEEILAGSWESLNTGRADLLVCPSLDTLPQEVKAEKIGKMSMIWVAATEHYVHKRSGEFDDSAREKYRIIAIADTAREQPALSINIIQKQPRLTVTNFTAKVEALTAGLGIGTLPRQIALPLIEKGVLKQIEGTEEQPMDIILAWRRNTMGEAKSWCIQYLKKNWKLK | not soluble
MENSRLMQSMPRTPKFEEEKKTDKDKEKEEKERNGKKTELARAQNKKAQEKDMPRFKQGENQIDTATETYELTSELGQGSFGAVFGVTRKSDKRHFAMKCESVNMKRAILPHEAGVLLALNHLKSPHFLEMVDHGIVNNRFLFVVLKLVGMNLWDMRAHLPDKKYTLTTTLRIAEQTLAGLRDLHRVGFLHRDIKPPNFAIGREEDDTYHTVFLLDFGLCRKIAMKGKDLRTPRKECAFRGTTRYAALAAHDNKEQSRKDDIESWWYMIAEMIVFDIPWKQFRGTDRDNVRGMKWRLRADETYFKFLFRKCCYEQMSAILLYLDQLSYSSIPDYDFVYHHLQAAAIVNNCSAKSPPDWDPKSQHYKGPIYKEREPYIVKSLE | not soluble
MAHHHHHHMFAFLNVAFMAAIRRKLKELKPPARRQSHRCAPEVYSQEGPTRHYFLPSVERIDKKTCISHRLLYIPEVENFPLVDGFFFVKSNPMTLVGLRMTTAGEHHTAASTVRQFTECLAAYFNGWEELSREMSWEMIYVQHADSTPMNDWQRCDVDNSNNLTEEGREIAAFWNEKVRQYQVSI | not soluble
MSLACGEFSLIARYFDRVRSSRLDVELGIGDDCALLNIPEKQTLAISTDTLVAGNHFLPDIDPADLAYKALAVNLSDLAAMGADPAWLTLALTLPDVDEAWLESFSDSLFDLLNYYDMQLIGGDTTRGPLSMTLGIHGFVPMGRALTRSGAKPGDWIYVTGTPGDSAAGLAILQNRLQVADAKDADYLIKRHLRPSPRILQGQALRDLANSAIDLSDGLISDLGHIVKASDCGARIDLALLPFSDALSRHVEPEQALRWALSGGEDYELCFTVPELNRGALDVALGHLGVPFTCIGQMTADIEGLCFIRDGEPVTLDWKGYDHFATPEGGSHHHHHH | soluble
HTGTVDIVADKTLYQPGETAKMLITFPEPIDEALLTLERDRVEQQSLLSHPANWLTLQRLNDTQYEARVPVSNSFAPNITFSVLYTRNGQYSFQNAGIKVAVPQLDIRVKTDKTHYQPGELVNVELTSSLKGKPVSAQLTVGVVDEMIYALQPE | not soluble
MGSDKIHHHHHHMNFDEKPYLRSIALKHQGLAEAKVTLIDGEFHDESAVRVQDCYPFTIPALAGFDSLDFDADVTFFVGENGSGKSTLLEAIAVAMGLNAEGGNKNTHFATKVSHSNLGYYLKTIKSFKKPKDSYFLRAESFYNLASYMEEDGREAYLGSYGGTSLHQQSHGESFMATLLHKFRGQGLYLMDEPEAALSPSRQLAALSAIHQLVENKSQFIIATHSPILLAYPRAKIYQFSNQGIVQITYQETEHYQITKAFLNQPEKLLASLGVG | not soluble
QRHQKNQNQQRIQALLEESQRRLKQMINKTHVGLLLINEQGQLFDLNPMAKRLFCLPENVNRQTFAWELFDAGNPNSTTLTLLRDLPKHKELAEISAVETMARRSDGSVFPVLFSLTTFPWHGELYFLATLIDISKRKKAEQSLQLINQELAQRVEERTQALRQAQEQLIESSKMAALGRMSSAITHELNQPLTGLRTLLTTNELLAERGETAMMKANNVLVQKLIDRMASMTSQLKTFAYNKPEKLQALSLTSALEETLRVYQSQLANVDVRVRIPSDLPQIQGEEQRLQQVLGNLISNALDAMQSRDNPQLSIVVTPTNSHVEVVVSDNGCGVALEQLDTIFEPFQTSKKIGEGLGLGLSITANNMRDMNGQVTAKRNPGSGMSFLLRFQLANTID | not soluble
INAGTDLDNPKDLEVSDPTETTLSLRWRRPVAKFDRYRLTYVSPSGKKNEMEIPVDSTSFILRGLDAGTEYTISLVAEKGRHKSKPTTIKGSTVVGSPKGISFSDITENSATVSWTPPRSRVDSYRVSYVPITGGTPNVVTVDGSKTRTKLVKLVPGVDYNVNIISVKGFEESEPISGILKTALDS | soluble
MGSSHHHHHHSSGLVPRGSHMGGGRSTETSSSSGGDGGATKKKVVVGTDAAFAPFEYMQKGKIVGFDVDLLDAVMKAAGLDYELKNIGWDPLFASLQSKEVDMGISGITITDERKQSYDFSDPYFEATQVILVKQGSPVKNALDLKGKTIGVQNATTGQEAAEKLFGKGPHIKKFETTVVAIMELLNGGVDAVITDNAVANEYVKNNPNKKLQVIEDPKNFASEYYGMIFPKNSELKAKVDEALKNVINSGKYTEIYKKWFGKEPKLDRLKQ | soluble
TIVYDKDGDKAGELSSTDATFVSIDKISKNLQNAVVSIEDRRFYEHKGFDLKGIARAGVNLITNGGISGGGSTITQQLAKNALLTQEQTFTRKAKEIFMAREIEKTYSKDEIMEMYLNRSYFGNGEWGVENASLKYFGKPAADLNIPEAATIAGLLQAPSAYDPYQHI | not soluble
MTQSRRTLTERRADELRLAIAEVAFDMFVADGNTSATVERISQAVGIAPRTFYRHFEVKEDVVRPIFTKSSDVIVDALASTGEDVALLEGLVAAFLSQMDGTALTPEARTFLGLMLTTPAYKIRWLDVDPPLRQAVADLLDRRLGLSADPYIHLLAADLIVHAARDAFQHWVSSQEREPTEALLRRSFTLILKGLEHVIPRT | not soluble
MGSDKIHHHHHHMTTRLQDIIQPEIFTEYVVQRTTEKSALVQSGIIERNAEFDALASGPNTLVNMPFWNDLTGDSEVIRDEGNLTAGKITSGKDVARKQGRARMWGASGLSALLSGDDPMRAIADLVADYWIRQDQKMLLATLEGIFNSESMADKVLDITGEPGSDALLDGDSFIDAGQLMGDAKDLLTGVMMHSAVEAYLAKRQLIEYVQEADQTDRIPYFMNKRVIVDDAMPYDTQTKEGVIYLFGTGAIASGVGSHPNILPTEVDRNSQSSSGEDFLINRRIQILHPRGVKWTENNVSDVFPTNEELADGSNWERVYEPKAIRIVKFKFKTELDVDGA | not soluble
MDDPKQPTWNVSPSLRRHARELRKKSTEAERLMWGELRDKRLNGFSFKRQVPIGPYIADFACHAKKLVVELDGGQHFSDDGERSDAARTAAIEARGFRVIRFSNHEVMTNRAGVLQSIADVLAARVLTPTLSRKRERERAKRAAKPRSDAGAANDQGDE | not soluble
MLMNEFEKACETLRKFMAYMLEKDMKSWTELWDENAVFEFPYAPEGSPKRIEGKAAIYDYIKDYPKQIHLSSFTAPTVYRSADSNTVIAEFQCDGHVIETGLPYRQSYISVIETRDGRIVRYRDYWNPLVVKEAFGGSFLQTEESGK | soluble
SLSSPLLPAPVCNPNKAIFTVDAKTTEILVANDKACGLLGYSSQDLIGQKLTQFFLRSDSDVVEALSEEHMEADGHAAVVFGTVVDIISRSGEKIPVSVWMKRMRQERRLCCVVVLEPVER | soluble
MSSAPLPPKPIERGYASAGLLARILVSKYMEHIPLYRQSEIYARQGVELSRNTMVRWVSEMADKLRPLYIALNDYVLEAGKVHADDTPVKVLAPGNGKTKTGRLWVYVRDDRNAGSSLPAAVWFAYSADRKGEHPQLHLAKYQGVLQADAYAGYNVLYETGRVKEAGCLAHARRKIHDEDVRRPTEMTQEALRRIAELYDIEAEIRGSPAEERLAVRKARSVQLMQSLYDWIQLQRKTLSKHAEMAKAFDYILNHWNALNEFCRDGRVEIDNNIGENALRSVAVGRKNYLFFGSDKGGESAAIIYSLLVTCKQNEVEPEDWLREVIEKLNDWPSNQVHELLPWNFSSVK | not soluble
MGSDKIHHHHHHMSSIYSAPILVFDVNETLLDIDTLTPLFTRLFGDENRLREWFAQLVLYSQTMTLSGLYTPFGELGVGALQMTADIHAVTLTEEDIQEFKQRMSETPAHPDVIPALTKLRDAGFRLVTLTNSAPSTSPTRLEKAGLSEFFEQNFSVDSVRQFKPAPAIYQMVASELSVETSELCLVACHIWDTIGAQAAGCQGAFVTRPYNALLSAPNVPKPDFIASDLITLAEHIINHQSS | not soluble
MGLQSLKEPVENSVQDEFSHFWSQHGEWVEEPNVRRGGESGVQRLVMDNGQTLYAKRQTGHIYRSLLHPLGRPTVLREREALEGLRKLGVVVPEVVFCGAERGEDNAWRALLVTVALDGFDEIEKWLAAGGRERHGELFYERMLKEVASTLARMHLGRWQHSCLYIKHVFVRVTGDGPDAKVEVALLDLEKGRRRLTAQGAAQHDMKQLRRHSSFSAADWQKLVYFYQTAFGSSIKGLES | not soluble
GPLGSPEFPGAFRTQKPSLNTVNVVGSSMGSGGVFTIDGKIKCVTAAHVLTGNSARVSGVGFNQMLDFDVKGDFAIADCPNWQGVAPKAQFCEDGWTGRAYWLTSSGVEPGVIGNGFAFCFTACGDAGSPVITEAGELVGVHTGSNKQGGGIVTRPSGQFCNVKPIKLSELSEFFAGPKVPLGDVKIGSHIIKDTCEVPSDLCALLAAKPELE | soluble
MGSDKIHHHHHHMQQNDKKLFVLDTNVLLHEPLAIYSFKEHDVIIPMTVLEELDSIKDRKRDVSRDARVAIRALEDILGGPTTPEQILKGVALPTREEHSQVSGHLSIFPDHQVEFIIGSLPGDNNDNRIINTALHLQKIHFPRTVVLVTKDINMRLKAKGAGIERVEDYRSDQLIDDVRFLAKGFYQFSGDFWQNVDKVSTERRGLHTVHQVPLEHLGNENFYLNQYLIDDSSDFCGRVVSKTDKHLEMIDRGRDRLLHHEAWGINPKNIYQGMALDALLDPDIELIILTGPAGCGKTLLAMAAALELVVERKLYDKIIVTRNTPEIAESIGFLPGSEEEKMTPWLAAITDTLEVLHKNDVNPAGSVNYIMEKANIQFKSINFMRGRSIQNSVVILDECQNLTASQIKTMITRMGEGTKLICSGNLAQIDSTYLTAVTSGLTYMVERFKDFEGSANIYLNGVVRSRLAEFAEEHL | not soluble
QFWDLNAKLVDIPTKMRVERWAFNFSELIRDPKGRQSFQHFLRKEFSGENLGFWEACEDLKYGDQSKVKEKAEEIYKLFLAPGARRWINIDGKTMDITVKGLKHPHRYVLDAAQTHIYMLMKKDSYARYLKSPIYKEMLAKAIEPQG | soluble
MSLNFDSLLLDIDGTLILKGQPLPGAAEALSFARAQGLRLQLLTNTTAKMPEALAQELCQAGIEVVPDEIQTATTACVGYLQQHAQLKCHLLVPDSIRAAFNGILTDDTNPDVVVISDIGEAFDYATLNRCFRMLRGGARLIALQKNLFWFDRDGERLDCGAFIVGLEAAAQVQALVMGKPSPMFFEAALRKLDTCASRTLVVGDDVLTDCAGAKAVGASSLLVRTGKYDLALFDAHRHNVGAVIDGIADFPRWWASGNTADRHDEGHHHHHH | soluble
TGIEQLEFQRESSVSTTLQGVCEPILAILVQGKKEALLCDETYRYSAAQYLVVSVDLPLSAFIVEATPEKPYLGFKLNLDPRQLCDIITAQTNVIEEKKNSVRGLFVSTIDAPLLDCAMRLTRLLDTPQDIPILAPMIIREIYYRLLMGEQGEAV | not soluble
MAEKRTVRPFAGTERRAKGWIQEAALRMLNNNLHPDVAERPDELIVYGGIGKAARNWECYEAIVDTLLRLENDETLLIQSGKPVAVFRTHPDAPRVLIANSNLVPAWATWDHFHELDKKGLIMYGQMTAGSWIYIGSQGIVQGTYETFAEVARQHFGGTLAGTITLTAGLGGMGGAQPLAVTMNGGVCLAIEVDPARIQRRIDTNYLDTMTDSLDAALEMAKQAKEEKKALSIGLVGNAAEVLPRLVETGFVPDVLTDQTSAHDPLNGYIPAGLTLDEAAELRARDPKQYIARAKQSIAAHVRAMLAMQKQGAVTFDYGNNIRQVAKDEGVDDAFSFPGFVPAYIRPLFCEGKGPFRWVALSGDPEDIYKTDEVILREFSDNERLCHWIRMAQKRIKFQGLPARICWLGYGERAKFGKIINDMVAKGELKAPIVIGRDHLDSGSVASPNRETEGMKDGSDAIADWPILNALLNAVGGASWVSVHHGGGVGMGYSIHAGMVIVADGTKEAEKRLERVLTTDPGLGVIRHADAGYELAIRTAKEKGIDMPMLK | soluble

Reference: the DeepSol protein solubility set
